We go through four molecules from patent EP1662255A2 (THE JOHNS HOPKINS UNIVERSITY SCHOOL OF MEDICINE, dated 2006).

B2: GRIP PDZ 4-6 (GST fusion) (other, UniProt P97879 471-754, looked up)
chain: EVVLTADPVTGFGIQLQGSVFATETLSSPPLISYIEADSPAERCGVLQIGDRVMAINGIPTEDSTFEEANQLLRDSSITSKVTLEIEFDVAESVIPSSGTFHVKLPKKHSVELGITISSPSSRKPGDPLVISDIKKGSVAHRTGTLELGDKLLAIDNIRLDSCSMEDAVQILQQCEDLVKLKIRKDEDNSDEQESSGAIIYTVELKRYGGPLGITISGTEEPFDPIIISSLTKGGLAERTGAIHIGDRILAINSSSLKGKPLSEAIHLLQMAGETVTLKIKKQT
notes: domain: PDZ 4-6; also called PDZ domains of GRIP; not shown: glutathione S-transferase fusion partner
B4: SAP102 PDZ1-3 (GST fusion) (other, UniProt Q62936 149-484, looked up)
chain: EIVLERGNSGLGFSIAGGIDNPHVPDDPGIFITKIIPGGAAAMDGRLGVNDCVLRVNEVDVSEVVHSRAVEALKEAGPVVRLVVRRRQPPPETIMEVNLLKGPKGLGFSIAGGIGNQHIPGDNSIYITKIIEGGAAQKDGRLQIGDRLLAVNNTNLQDVRHEEAVASLKNTSDMVYLKVAKPGSLHLNDMYAPPDYASTFTALADNHISHNSSLGYLGAVESKVTYPAPPQVPPTRYSPIPRHMLAEEDFTREPRKIILHKGSTGLGFNIVGGEDGEGIFVSFILAGGPADLSGELRRGDRILSVNGVNLRNATHEQAAAALKRAGQSVTIVAQYR
notes: domain: PDZ 1-3; also called SAP102 PDZI-3; not shown: glutathione S-transferase fusion partner

Assay [1] has as its target B2. Briefly: GST pulldown from extracts of heterologous cells.
The target in assay [2] is B4. Briefly: GST pulldown from extracts of heterologous cells.
Assay [3] concerns the target T1, carboxy-terminal 347 amino acids of GKAP-3 (amino-terminal myc tag) (rat, UniProt P97838 631-977).
T1 construct: domain: carboxy-terminal 347 amino acids; also called GKAP-3/SAPAP3 carboxy-terminus
T1 sequence (looked up): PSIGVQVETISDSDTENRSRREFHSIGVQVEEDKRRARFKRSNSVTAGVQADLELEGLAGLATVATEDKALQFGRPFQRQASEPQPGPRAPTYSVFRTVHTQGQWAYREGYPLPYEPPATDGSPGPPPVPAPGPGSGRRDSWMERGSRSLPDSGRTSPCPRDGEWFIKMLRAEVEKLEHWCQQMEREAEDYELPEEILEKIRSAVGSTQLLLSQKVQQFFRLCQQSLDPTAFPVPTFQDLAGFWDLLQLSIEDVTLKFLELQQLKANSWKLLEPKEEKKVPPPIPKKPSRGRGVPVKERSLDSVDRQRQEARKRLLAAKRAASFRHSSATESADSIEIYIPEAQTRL
The assay can be described thus: GST pulldown from HEK293 lysate.

Assay [4] has as its target T2, GKAP1 (native, rat brain extracts) (rat, UniProt P97836 1-992).
T2 construct: mature
T2 sequence (looked up): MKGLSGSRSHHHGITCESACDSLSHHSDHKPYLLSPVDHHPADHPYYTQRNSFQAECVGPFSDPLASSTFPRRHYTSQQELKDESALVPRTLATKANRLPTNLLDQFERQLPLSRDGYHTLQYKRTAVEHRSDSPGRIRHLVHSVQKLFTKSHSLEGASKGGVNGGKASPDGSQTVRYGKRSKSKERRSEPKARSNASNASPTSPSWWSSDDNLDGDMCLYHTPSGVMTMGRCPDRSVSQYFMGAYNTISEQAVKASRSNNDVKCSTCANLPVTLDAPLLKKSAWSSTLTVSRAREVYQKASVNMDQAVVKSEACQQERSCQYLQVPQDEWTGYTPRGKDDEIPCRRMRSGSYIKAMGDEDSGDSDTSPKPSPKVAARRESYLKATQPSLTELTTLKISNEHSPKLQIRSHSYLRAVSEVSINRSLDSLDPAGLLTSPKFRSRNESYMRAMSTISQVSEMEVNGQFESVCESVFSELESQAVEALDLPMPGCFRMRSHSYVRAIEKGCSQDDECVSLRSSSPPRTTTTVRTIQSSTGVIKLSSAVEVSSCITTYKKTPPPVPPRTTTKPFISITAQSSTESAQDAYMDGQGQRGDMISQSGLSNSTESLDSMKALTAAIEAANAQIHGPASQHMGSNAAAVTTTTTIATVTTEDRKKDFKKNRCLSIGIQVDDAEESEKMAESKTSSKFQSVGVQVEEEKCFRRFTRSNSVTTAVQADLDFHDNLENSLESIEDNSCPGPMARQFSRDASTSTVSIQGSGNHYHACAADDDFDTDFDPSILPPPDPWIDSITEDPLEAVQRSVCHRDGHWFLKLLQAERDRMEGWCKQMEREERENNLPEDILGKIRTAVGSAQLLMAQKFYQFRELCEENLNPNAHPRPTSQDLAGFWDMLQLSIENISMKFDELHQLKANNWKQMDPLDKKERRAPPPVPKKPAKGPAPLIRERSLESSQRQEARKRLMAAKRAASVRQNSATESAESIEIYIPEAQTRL
The assay can be described thus: GST pull-down from rat brain extracts.

B1: recombinant mGluR5 carboxy-terminal 241 amino acid peptide (receptor, UniProt P31424 963-1203, looked up)
chain: AAGGGSGPGVAGAGNAGCTATGGPEPPDAGPKALYDVAEAEESFPAAARPRSPSPISTLSHLAGSAGRTDDDAPSLHSETAARSSSSQGSLMEQISSVVTRFTANISELNSMMLSTAATPGPPGTPICSSYLIPKEIQLPTTMTTFAEIQPLPAIEVTGGAQGATGVSPAQETPTGAESAPGKPDLEELVALTPPSPFRDSVDSGSTTPNSPVSESALCIPSSPKYDTLIIRDYTQSSSSL
notes: domain: carboxy-terminal 241 amino acids; Expressed in heterologous cells for GST pulldown; also called mGluR5 carboxy-terminal tail; mGluR5 C-terminal tail
With B1, the binding result in assay [1] and in assay [2] was “no binding” in each case.
With B2, the binding result in assay [3] is listed as “no binding”.

B3: GST-GKAP(carboxy-terminal) (other, UniProt P97836-5 591-666, looked up)
chain: MDPLDKKERRAPPPVPKKPAKGPAPLIRERSLESSQRQEARKRLMAAKRAASVRQNSATESAESIEIYIPEAQTRL
notes: domain: carboxy-terminal 76 amino acids; also called carboxy-terminal 76 amino acids of GKAP1a fused to GST; not shown: glutathione S-transferase fusion partner
For B3, the binding result in assay [4] was “no binding”.
Consider B4, for which the binding result in assay [3] is recorded as “no binding”.
